Here are results for two molecules from paper PMC4439027, “Selection of scFv Antibody Fragments Binding to Human Blood versus Lymphatic Endothelial Surface Antigens by Direct Cell Phage Display” (PLoS ONE, 2015).

In assay [1] the target is T1, Recombinant human CD146 comprising the extracellular Met1-Gly559 portion of the protein precursor, C-terminal … (Homo sapiens, UniProt P43121-1).
T1 construct: signal peptide in the construct; human CD146 / MCAM / MUC18, extracellular Met1-Gly559 portion of the protein precursor (NP_006491.2); also called recombinant CD146; extracellular domain of recombinant human CD146; source: bought: Sino Biological Inc., Nr; 10115-H08H
Description: ELISA; plates coated with recombinant CD146 or BSA at 100, 10 and 1 ng/ml overnight at 4°C, blocked with TBST/ 5% BSA; scFv or scFv-Fc added serially diluted, RT overnight; HRP-conjugated detection antibodies, absorbance at 450 nm. The following applies: both partners purified.

Assay [2] concerns the target T2, CD146 / MCAM on BECs and melanoma cells (Homo sapiens, UniProt P43121-1).
T2 construct: also called native CD146; CD146 expressed by BECs, melanoma cells; source: endogenous, on BECs and melanoma cell lines A375, CRL1676, HTB71 (fixed monolayers)
Put plainly: immunostaining of cells or tissue; immunofluorescence on fixed cells (BECs, LECs, HDMECs, melanoma cells) and human skin cryosections, co-staining with anti-podoplanin or commercial anti-CD146 antibody. The following applies: one partner purified.

Assay [3] addresses T3, CD146 of BEC lysate treated with PNGase F (N-linked oligosaccharides removed) (Homo sapiens, UniProt P43121-1, oligosaccharides removed from N-linked glycoprotein with PNGase F).
T3 construct: human CD146 / MCAM (NP_006491), endogenous in primary human blood endothelial cells, after PNGase F; band shifted down to 95 kDa; PNGase F was added before or after the scFv; also called deglycosylated CD146; source: endogenous, BEC lysate, treated with PNGase F (3 hrs at 37°C)
Description: co-IP; BEC lysate incubated with scFv or scFv-Fc (or Fc only) at 4°C overnight, captured on Protein A/G resin; Western blot in reducing conditions with commercial anti-CD146 antibody; lysates with or without PNGase F, before or after addition of the scFv. The following applies: one partner purified.

Assay [4] has as its target T2, CD146 / MCAM on BECs and melanoma cells. Put plainly: ELISA; whole cell ELISA on confluent monolayers in 96-well plates fixed with PBS/ 1% PFA; purified scFv or scFv-Fc added; absorbance at 450 nm. The following applies: one partner purified. (In general: ELISA stands for enzyme-linked immunosorbent assay.)

T1 sequence (P43121 24-559): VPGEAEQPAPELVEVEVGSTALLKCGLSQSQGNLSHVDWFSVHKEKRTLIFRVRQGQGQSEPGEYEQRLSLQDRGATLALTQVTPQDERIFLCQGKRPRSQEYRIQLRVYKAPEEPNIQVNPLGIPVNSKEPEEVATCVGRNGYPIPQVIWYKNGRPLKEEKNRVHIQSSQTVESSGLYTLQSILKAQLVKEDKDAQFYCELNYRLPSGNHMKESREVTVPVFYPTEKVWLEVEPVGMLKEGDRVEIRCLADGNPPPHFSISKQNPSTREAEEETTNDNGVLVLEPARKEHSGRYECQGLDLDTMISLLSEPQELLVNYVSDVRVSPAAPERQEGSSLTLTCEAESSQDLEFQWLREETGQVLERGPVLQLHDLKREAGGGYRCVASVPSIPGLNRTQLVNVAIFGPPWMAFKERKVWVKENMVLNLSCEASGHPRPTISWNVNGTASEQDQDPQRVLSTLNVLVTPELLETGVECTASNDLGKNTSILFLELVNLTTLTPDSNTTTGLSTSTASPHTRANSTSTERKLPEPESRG
T2 sequence (P43121 24-646): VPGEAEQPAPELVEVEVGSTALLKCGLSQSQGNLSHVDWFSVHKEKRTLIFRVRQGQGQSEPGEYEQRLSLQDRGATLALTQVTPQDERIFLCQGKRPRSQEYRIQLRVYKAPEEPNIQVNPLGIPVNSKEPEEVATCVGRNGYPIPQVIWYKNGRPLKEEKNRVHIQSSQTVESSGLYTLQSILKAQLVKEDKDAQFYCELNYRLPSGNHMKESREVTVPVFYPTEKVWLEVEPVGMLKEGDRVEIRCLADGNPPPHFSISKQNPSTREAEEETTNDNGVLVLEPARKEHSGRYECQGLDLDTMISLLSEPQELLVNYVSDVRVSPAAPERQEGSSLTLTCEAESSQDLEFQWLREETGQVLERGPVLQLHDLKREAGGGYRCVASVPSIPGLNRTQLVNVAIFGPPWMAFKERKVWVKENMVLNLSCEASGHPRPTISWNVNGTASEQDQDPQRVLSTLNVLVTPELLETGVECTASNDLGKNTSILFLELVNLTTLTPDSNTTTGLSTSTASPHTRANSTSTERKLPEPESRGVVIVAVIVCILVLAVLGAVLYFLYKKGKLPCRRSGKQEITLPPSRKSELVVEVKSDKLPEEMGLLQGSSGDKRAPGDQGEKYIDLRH
T3 sequence (P43121 24-646): as above

B1: scFv-Fc B6-11 fusion antibody (Fc fusion, human)
VH: EVQLVESGGGLVQGGSLRLSCAASGFTFSSYAMSWVRQAPGKGLEWVSAISGSGGSTYYADSVKGRFTISRDNSKNTLYLQMNSLRAEDTAVYYCAKSSNVRTFDYWGQGTLVTVSR
VL: SSELTQDPAVSVALGQTVRITCQGDSLRSYYASWYQQKPGQAPVLVIYGKNNRPSGIPDRFSGSSSGNTASLTITGAQAEDEADYYCNSSTPLSAPVVFGGGTKLTVL
notes: Runs as a dimer under non-reducing SDS-PAGE; the Fc is that of the vector pFUSE-mIgG2B-Fc2 (Invivogen); also called scFv-mFc fusion antibody; source: HEK293, transfected (pFUSE-mIgG2B-Fc2), purified from culture supernatants (proteinAG UltraLink Resin); not shown: Fc (murine IgG2B), C-terminal, kept
As for B1, the binding result in assay [1] and in assay [2] was “binds” each time.

B2: scFv B6-11 (scFv, V domains shown)
VH: EVQLVESGGGLVQGGSLRLSCAASGFTFSSYAMSWVRQAPGKGLEWVSAISGSGGSTYYADSVKGRFTISRDNSKNTLYLQMNSLRAEDTAVYYCAKSSNVRTFDYWGQGTLVTVSR
VL: SSELTQDPAVSVALGQTVRITCQGDSLRSYYASWYQQKPGQAPVLVIYGKNNRPSGIPDRFSGSSSGNTASLTITGAQAEDEADYYCNSSTPLSAPVVFGGGTKLTVL
notes: VH of scFv B6-11 (ETH-2 library, human germline heavy chain segment with randomised CDR3); linker region; VL of scFv B6-11 (ETH-2 library, human germline light chain segment with randomised CDR3); Selected from the semi-synthetic human ETH-2 phage library on BECs (round 6); His-tag and Flag-tag come from phagemid pDN332; also called scFv B6-11 antibody; anti-CD146 scFv B6-11; source: E. coli TG1, …
For the molecule B2, the binding result in assay [1], in assay [3] and in assay [4] was “binds” in each case.
